From paper PMC10899660 (2024)

B1: Ece1-IV, synthetic peptide (peptide)
peptide: EDIDSVVAGIIADMPFVVRAVDTAMTSVASTKR
B2: Ece1-V, synthetic peptide (peptide)
peptide: DGANDDVANAVVRLPEIVARVATGVQQSIENAKR
B3: Ece1-II, synthetic peptide (peptide)
peptide: DVAPAAPAAPADQAPTVPAPQEFNTAITKR
B4: Recombinant Cyclin H (CCNH) protein with a C-HIS tag (natural protein)
chain: MYHNSSQKRHWTFSSEEQLARLRADANRKFRCKAVANGKVLPNDPVFLEPHEEMTLCKYYEKRLLEFCSVFKPAMPRSVVGTACMYFKRFYLNNSVMEYHPRIIMLTCAFLACKVDEFNVSSPQFVGNLRESPLGQEKALEQILEYELLLIQQLNFHLIVHNPYRPFEGFLIDLKTRYPILENPEILRKTADDFLNRIALTDAYLLYTPSQIALTAILSSASRAGITMESYLSESLMLKENRTCLSQLLDIMKSMRNLVKKYEPPRSEEVAVLKQKLERCHSAELALNVITKKRKGYEDDDYVSKKSKHEEEEWTDDDLVESL

Key:
Assay in all cases: SPR
[1] = target: B4
[2] = target: B4
Ece1-III = target: Ece1-III

Row | Binder | Kd [1] [µM] | koff [2] [s⁻¹] | Kd (Ece1-III) [µM] | koff (Ece1-III) [s⁻¹]
1 | B1 | 5.98 | 0.000297 | – | –
2 | B2 | 3.16 | 0.000719 | – | –
3 | B3 | 9.13 | 0.00415 | – | –
4 | B4 | – | – | 0.0172 | 0.00171
